Results on 1 molecule are retold here after article PMC8873925.

Holding throughout (assay): ITC
Background: ITC needs no label: the signal is the heat of the interaction.

The target of series [1] is T1, CSTF2 RRM D90I (Homo sapiens, UniProt P33240 1-107, D90I).
T1 sequence: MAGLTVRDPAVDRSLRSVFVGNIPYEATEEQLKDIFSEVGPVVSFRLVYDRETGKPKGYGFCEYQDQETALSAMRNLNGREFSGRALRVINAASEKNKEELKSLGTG

Series [2] has as its target T2, CSTF2 (CstF-64) RRM wild-type (Homo sapiens, UniProt P33240 1-107).
T2 sequence: T1 sequence with I90D

Series [3] addresses T3, CSTF2 RRM K96E (Homo sapiens, UniProt P33240 1-107, K96E).
T3 sequence: T1 sequence with I90D, K96E

The target in series [4] is T4, CSTF2 RRM D90K (Homo sapiens, UniProt P33240 1-107, D90K).
T4 sequence: T1 sequence with I90K

Series [5] addresses T5, CSTF2 RRM K98E (Homo sapiens, UniProt P33240 1-107, K98E).
T5 sequence: T1 sequence with I90D, K98E

For series [6], the target named is T6, CSTF2 RRM A93E (Homo sapiens, UniProt P33240 1-107, A93E).
T6 sequence: T1 sequence with I90D, A93E

Series [7] concerns the target T7, CSTF2 RRM E26A (Homo sapiens, UniProt P33240 1-107, E26A).
T7 sequence: T1 sequence with E26A, I90D

Series [8] concerns the target T8, CSTF2 RRM D50A (Homo sapiens, UniProt P33240 1-107, D50A).
T8 sequence: T1 sequence with D50A, I90D

The target in series [9] is T9, CSTF2 RRM F45A (Homo sapiens, UniProt P33240 1-107, F45A).
T9 sequence: T1 sequence with F45A, I90D

Positions count from the first letter of the chain named.

As for AUUUUAUGUUUCAGGU (ssRNA) [SVL RNA], the dissociation constant (Kd) in series [1] was found to be 1260 ± 330 nM; in series [2], 1520 ± 170 nM; in series [3], 38700 ± 4200 nM; in [4], 608 ± 10 nM; in series [5], 8700 ± 110 nM; in series [6], 3880 ± 770 nM. For the same molecule, the values for the Kd in [7], in series [8] and in series [9] were 520 ± 10 nM, 698 ± 60 nM and 1010 ± 50 nM, respectively.

As usually defined, the Kd is the equilibrium constant for the complex coming apart.
